Measurements: the supplement of paper PMC7125110
± gives the standard error. For some assays here: Fewer inactive variants are shown than the library holds.

B1: glmS ribozyme (parent)
chain: AUAAAAGCGCCAGAACUACAGAAAUGUAGUUGACGAGGAGGAGGUUUAUCGAAUUUUCGGCGGAUGCCUCCAAA

Assays:
Settings in all cases: with glucosamine-6-phosphate
glucosamine-6-phosphate [1] = variants of: B1; assay: kcat; higher = faster cleavage; RNA array
Summary of the method: (§1)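 Using a hybridised Cy3 probe at 37 °C, barcoded ribozyme variants transcribed in situ by E. coli RNA polymerase on sequenced MiSeq chips were monitored across tiles imaged over ~14 h. The flow contained glucosamine-6-phosphate from 40 μM to 10 mM in HEPES/KCl/Mg(OAc)2 buffer. Signals were normalised to baseline and to non-cleaving reference variants before per-tile medians were fit to one- or two-exponential decays to yield kobs. Weighted Michaelis–Menten fits across concentrations gave kcat and KM.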

glucosamine-6-phosphate [2] = variants of: B1; assay: KM; higher = weaker cofactor use; RNA array
Summary of the method: as §1

glucosamine-6-phosphate [3] = variants of: B1; assay: self-cleavage kobs at 40 uM GlcN6P; higher = faster cleavage; RNA array
Summary of the method: as §1

glucosamine-6-phosphate [4] = variants of: B1; assay: self-cleavage kobs at 160 uM GlcN6P; higher = faster cleavage; RNA array
Summary of the method: as §1

glucosamine-6-phosphate [5] = variants of: B1; assay: self-cleavage kobs at 640 uM GlcN6P; higher = faster cleavage; RNA array
Summary of the method: as §1

glucosamine-6-phosphate [6] = variants of: B1; assay: self-cleavage kobs at 2500 uM GlcN6P; higher = faster cleavage; RNA array
Summary of the method: as §1

glucosamine-6-phosphate [7] = variants of: B1; assay: self-cleavage kobs at 10000 uM GlcN6P; higher = faster cleavage; RNA array
Summary of the method: as §1

Variant	kcat (glucosamine-6-phosphate [1])	KM (glucosamine-6-phosphate [2])	self-cleavage kobs at 40 uM GlcN6P (glucosamine-6-phosphate [3])	self-cleavage kobs at 160 uM GlcN6P (glucosamine-6-phosphate [4])	self-cleavage kobs at 640 uM GlcN6P (glucosamine-6-phosphate [5])	self-cleavage kobs at 2500 uM GlcN6P (glucosamine-6-phosphate [6])	self-cleavage kobs at 10000 uM GlcN6P (glucosamine-6-phosphate [7])
G66U C70U	0.00205 ± 0.00047 s⁻¹	1830 ± 590 µM	6.67e-05 ± 8e-06 s⁻¹	0.000141 ± 1.7e-05 s⁻¹	0.000507 ± 4.8e-05 s⁻¹	0.00124 ± 0.00016 s⁻¹	0.00175 ± 0.00019 s⁻¹
A6G A53C C58A C61A			< 1e-05 s⁻¹				< 1e-05 s⁻¹
C70G C71U	0.000112 ± 1.4e-05 s⁻¹	401 ± 170 µM		5.07e-05 ± 7.8e-06 s⁻¹	6.12e-05 ± 4.8e-06 s⁻¹	0.000102 ± 8.1e-06 s⁻¹	0.00011 ± 8.6e-06 s⁻¹
A6C C50A			< 1e-05 s⁻¹				< 1e-05 s⁻¹
A6C G51A			< 1e-05 s⁻¹	< 1e-05 s⁻¹		< 1e-05 s⁻¹	< 1e-05 s⁻¹
A6C G13A A52C			< 1e-05 s⁻¹			< 1e-05 s⁻¹	< 1e-05 s⁻¹
U65C C71A	0.000104 ± 5.5e-06 s⁻¹	481 ± 140 µM			6.26e-05 ± 2.5e-05 s⁻¹	8.23e-05 ± 2e-05 s⁻¹	0.000102 ± 2.3e-05 s⁻¹
U65C C71U	0.000792 ± 0.00011 s⁻¹	1460 ± 510 µM			0.000236 ± 4.3e-05 s⁻¹	0.000617 ± 0.00011 s⁻¹	0.000659 ± 8e-05 s⁻¹
A6G U54G U57C			< 1e-05 s⁻¹				< 1e-05 s⁻¹
A6G A15U C16U A39G C70U			< 1e-05 s⁻¹		< 1e-05 s⁻¹		
A6C A12G			< 1e-05 s⁻¹	< 1e-05 s⁻¹	< 1e-05 s⁻¹		
A6G U31C C68A			< 1e-05 s⁻¹				
A6G A14C C34A C68A			< 1e-05 s⁻¹				
A6C A15U A36C G43A U46G C50U A53U C61U			< 1e-05 s⁻¹		< 1e-05 s⁻¹	< 1e-05 s⁻¹	< 1e-05 s⁻¹
A6C A64U			< 1e-05 s⁻¹	< 1e-05 s⁻¹	< 1e-05 s⁻¹		< 1e-05 s⁻¹
A6C C11G G29U C34G G51C			< 1e-05 s⁻¹				
A6G C11U C16A A64G			< 1e-05 s⁻¹	< 1e-05 s⁻¹	< 1e-05 s⁻¹		< 1e-05 s⁻¹
G37A G63A		278 ± 110 µM					
A6C G9C C11U C34G G38A U55C G59A C67U			< 1e-05 s⁻¹				< 1e-05 s⁻¹
A6G C58G C61U			< 1e-05 s⁻¹				< 1e-05 s⁻¹
A6G G44U			< 1e-05 s⁻¹		< 1e-05 s⁻¹	< 1e-05 s⁻¹	< 1e-05 s⁻¹
A6G G13C			< 1e-05 s⁻¹	< 1e-05 s⁻¹	< 1e-05 s⁻¹	< 1e-05 s⁻¹	< 1e-05 s⁻¹

Variant	kcat (glucosamine-6-phosphate [1])	KM (glucosamine-6-phosphate [2])	self-cleavage kobs at 40 uM GlcN6P (glucosamine-6-phosphate [3])	self-cleavage kobs at 160 uM GlcN6P (glucosamine-6-phosphate [4])	self-cleavage kobs at 640 uM GlcN6P (glucosamine-6-phosphate [5])	self-cleavage kobs at 2500 uM GlcN6P (glucosamine-6-phosphate [6])	self-cleavage kobs at 10000 uM GlcN6P (glucosamine-6-phosphate [7])
A42C U56G		4130 ± 120 µM					
A6C A36U G37C G60U			< 1e-05 s⁻¹				
A6C G66C C68G			< 1e-05 s⁻¹				
A6G A52G			< 1e-05 s⁻¹	< 1e-05 s⁻¹			
A39G U55G		212 ± 100 µM	0.0012 ± 0.00016 s⁻¹	0.00211 ± 0.0006 s⁻¹	0.00499 ± 0.00097 s⁻¹	0.00613 ± 0.0016 s⁻¹	0.0177 ± 0.0048 s⁻¹
A6G A48C			< 1e-05 s⁻¹		< 1e-05 s⁻¹		< 1e-05 s⁻¹
A6G C61A			< 1e-05 s⁻¹			< 1e-05 s⁻¹	< 1e-05 s⁻¹
A6G C61U			< 1e-05 s⁻¹	< 1e-05 s⁻¹	< 1e-05 s⁻¹	< 1e-05 s⁻¹	< 1e-05 s⁻¹
A6G C50G			0.000151 ± 3.1e-05 s⁻¹	9.76e-05 ± 3.1e-05 s⁻¹	0.000503 ± 0.00012 s⁻¹	0.000106 ± 3.4e-05 s⁻¹	3.84e-05 ± 1.3e-05 s⁻¹
A6C G7C			< 1e-05 s⁻¹	< 1e-05 s⁻¹	< 1e-05 s⁻¹	< 1e-05 s⁻¹	< 1e-05 s⁻¹
U65A C71G	0.000477 ± 0.00013 s⁻¹	1710 ± 720 µM		4.31e-05 ± 1.1e-05 s⁻¹	0.000124 ± 1.6e-05 s⁻¹	0.000382 ± 9.3e-05 s⁻¹	0.000383 ± 8.9e-05 s⁻¹
C67U U69C	0.000129 ± 6e-05 s⁻¹			4.3e-05 ± 2.1e-05 s⁻¹	0.000113 ± 2e-05 s⁻¹	4.99e-05 ± 2.3e-05 s⁻¹	0.000226 ± 3.7e-05 s⁻¹
C67U U69G	3.43e-05 ± 1.5e-05 s⁻¹			4.85e-05 ± 1.1e-05 s⁻¹		4.75e-05 ± 1.2e-05 s⁻¹	
A6C G62A			< 1e-05 s⁻¹	< 1e-05 s⁻¹	< 1e-05 s⁻¹		
U2C A33G			< 1e-05 s⁻¹	< 1e-05 s⁻¹		< 1e-05 s⁻¹	< 1e-05 s⁻¹
A6C C8U C68A C70A			< 1e-05 s⁻¹				
C68A C70U	1.14e-05 ± 4.1e-06 s⁻¹						
A6C G29U G32A U45A G60A			< 1e-05 s⁻¹			< 1e-05 s⁻¹	
A6C G32C U49G			< 1e-05 s⁻¹				< 1e-05 s⁻¹
A6C C61G			< 1e-05 s⁻¹		< 1e-05 s⁻¹		< 1e-05 s⁻¹
A1U U2G A3G A5U A6C G7C C8A G9U C10A C11A			< 1e-05 s⁻¹	< 1e-05 s⁻¹	< 1e-05 s⁻¹	< 1e-05 s⁻¹	< 1e-05 s⁻¹
